Source: the RNAGym collection of RNA variant scans (doi:10.1073/pnas.2313332121)
This sample holds only a part of the variants without activity.

B1: TPR 5TU (parent)
chain: GGAUCUUCUCGAUCUAACAAAAAAGACAAAUCUGCCACAAAGCUUGAGAGCAUCUUCGGAUGCAGAGGCGGCAGCCUUCGGUGGCGCGAUAGCGCCAACGUUCUCAACUAUGACACGCAAAACGCGUGCUCCGUUGAAUGGAGUUUAUCAUG

Variants of: B1
Assay: polymerase ribozyme fitness, log enrichment relative to wild type (log ratio); higher = more active; in vitro selection for triplet polymerase activity
Procedure, shortened: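 A single round of triplicate in vitro selection, including frozen incubation at −7 °C, was applied to PCR-built, transcribed mutant libraries of each subunit of a heterodimeric triplet polymerase ribozyme. Illumina sequencing of input and output libraries retained genotypes with ≥10 input reads and ≥1 read per output. Fitness is the base-2 logarithm of genotype enrichment divided by wild-type enrichment, from inverse-variance-weighted replicate averages.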

Polymerase ribozyme fitness (log ratio), -3.78:
A26U A60U U111G G141U

Polymerase ribozyme fitness (log ratio), -2.31:
C27U C76A

Polymerase ribozyme fitness (log ratio), -3.94:
C27U G50U U55A C96A A110G G133U

Polymerase ribozyme fitness (log ratio), -4.06:
C27U A37C C51U C57U C95U C125A

Polymerase ribozyme fitness (log ratio), -2.25:
C27U U31A G48U C85U

Polymerase ribozyme fitness (log ratio), -3.11:
C27U C93U U104A

Polymerase ribozyme fitness (log ratio), -3.77:
C27G C95A G141C

Polymerase ribozyme fitness (log ratio), -1.51:
A26U G62A

Polymerase ribozyme fitness (log ratio), -2.12:
C27U C54U G83U

Polymerase ribozyme fitness (log ratio), -4.05:
C27G C32U C36U G88A C99U G141U G152C
C27G A147C

Polymerase ribozyme fitness (log ratio), -2.67:
A26U C93U

Polymerase ribozyme fitness (log ratio), -1.63:
A26U C85U

Polymerase ribozyme fitness (log ratio), -2.23:
C27U A40U G58C G59U G92U

Polymerase ribozyme fitness (log ratio), -2.74:
A26U G86A

Polymerase ribozyme fitness (log ratio), -3.3:
C27U C51G

Polymerase ribozyme fitness (log ratio), -2.88:
C27U C36U

Polymerase ribozyme fitness (log ratio), -4.07:
C27G C38U A49C G65C C87G C114A A119G U145A

Polymerase ribozyme fitness (log ratio), -0.747:
C27U C57A

Polymerase ribozyme fitness (log ratio), -4.12:
C27U G50C G141A

Polymerase ribozyme fitness (log ratio), -4.16:
A26G C95U C96U

Polymerase ribozyme fitness (log ratio), -4.1:
C27U A28C U44G A52C C93A

Polymerase ribozyme fitness (log ratio), -3.87:
C27U C36A C108G U139G U145C
A26U G46U

Polymerase ribozyme fitness (log ratio), -1.66:
A26U G81A
C27U G84A

Polymerase ribozyme fitness (log ratio), -3.26:
A26U A89G

Polymerase ribozyme fitness (log ratio), -2.03:
A26G U55A

Polymerase ribozyme fitness (log ratio), -3.98:
C27G G83A A89C

Polymerase ribozyme fitness (log ratio), -3.46:
C27U U33G C95U

Polymerase ribozyme fitness (log ratio), -2.1:
A26U G94C

Polymerase ribozyme fitness (log ratio), -3.97:
C27G C51U

Polymerase ribozyme fitness (log ratio), -2.62:
A26U C69G A142U

Polymerase ribozyme fitness (log ratio), -2.77:
A26U G62U U135A

Polymerase ribozyme fitness (log ratio), -3.59:
A26G U145A
C27U G84A A89G

Polymerase ribozyme fitness (log ratio), -3.69:
A26G C99U

Polymerase ribozyme fitness (log ratio), -2.08:
A26U C51U G58C

Polymerase ribozyme fitness (log ratio), -3.62:
C27U A47G A52C G83A U146G

Polymerase ribozyme fitness (log ratio), -0.0486:
A26U A147U

Polymerase ribozyme fitness (log ratio), -0.836:
C27U G58A C96U C116U C118G U144G

Polymerase ribozyme fitness (log ratio), -2.39:
C27U C95U

Polymerase ribozyme fitness (log ratio), -3.72:
C27U A138G

Polymerase ribozyme fitness (log ratio), -1.94:
A26U G141U

Polymerase ribozyme fitness (log ratio), -4.15:
C27U C43U C95U A119U G143C U144C

Polymerase ribozyme fitness (log ratio), -1.76:
A26U C54U C95U

Polymerase ribozyme fitness (log ratio), -4.17:
C27A A37U A91C

Polymerase ribozyme fitness (log ratio), -3.73:
A26U G80A A98C U101G

Polymerase ribozyme fitness (log ratio), -3.68:
C27G C93U G141C

Polymerase ribozyme fitness (log ratio), ≤ -4.2:
A26U A40U A91U A121U
C27A U33C C85A A106G U144A U151C
A26U C35G C69A G92A C96A A97G A120C
A26U A60G C69A A97U C114U U135C
C27G C38A C54U G92U U134G
A26U A49G C93U G124C U135G A138G
C27A C35A G84U C103G
C27U U33G G68C C69U C76U C95A C103U A110C G133A U139G
A26U C32G U45C G50C U53G G84A C99U A137G
C27G C43U C75G U78G C129G G143A
C27G A40C G48A C63A G70U G81A G92A
C27U A66G G88A G136A
C27U A47C U56G C76U U78A G94A A97U C118U
A26U G59A C87G
C27G G48C G80A G81A A113G C118A C132U G136C A150G
C27G A29G C95U
A26U U33A A47G G62A G94U C105U A110U
C27G A40U G58A A73C C76U C95G
A26U G50A A64G U101G G141A
C27G G92C A142U
A26U G42C C93G A115U
C27U A39C G83A
C27G C54A C93A A115U
A26U A40U A91U A122U
C27A U56A A60U A122C U144A
A26U C54A C93A A138C G141C
A26U C51U A64U C125U
A26U C36U U44A C57A G68C C118A U135G
C27G G58A C93A C95G
C27A C79A G84A G86U
A26U A37C C95G A107C G152U
C27A G50C G80A C95U
A26U G42U
A26U G42U U44A U55A G59U C103G A119G A120U G140U
C27A A47U A106U U145A
A26G A52C G59C A64C
A26U A28C A52C G58A U139G A147C
C27A U45A C87U A138C
A26G A89C A97C G143C
A26U A91G A115G A150C
C27G A37C A47C C87G A115C
C27G C76A C93G
C27G G80A C114A C116U A142C
A26U C51A C54A C57U U90C C93G
C27G G65A
C27U A29U U144C
A26U C103A C114U
C27U G92C U146C U151G
A26U C75A U82G G92U G100A A107U U144A
A26G A91U U104G A122C
C27U G68C A89G C93A A110G G136C
A26U C96U C108G U127A
C27G A29C C51A A73U G83A A97U U151A
C27U C43A C75U C96U C105A
C27G C38U A39G A73C G94U U146C G152U
C27A C43A A52U U55A U56A G92U
C27U C35A G133U C149G
C27A G88A C96A A97G G128U U135G U145A
A26U A49U C87A U134G
C27G G67C G141A A147U G152A
C27A C85A G86U A91C U101A C118G
C27A A37U G42C A106C C116G A121G G128A U145G
A26U G46C U55A C93U C103A A106G C114A
C27A G46U G50U U56A G70C U101G
C27U A52C A60U C76U G84U C96G U109C
C27U G59A G67C G86C C99U
A26G C69U C79U C87U A91U
C27G C63A C85U C87A G136A A138C
C27A G58A C76G C99U U101G
A26G C43U U45A G59C G88A
C27G C93U U130G U151A
C27G A41C C54G C87G C114G C125A
A26U A49U G59U
A26U G68C G86U C103G A115C
A26U A39C U45A A60C U61G G83C U102C U111G
C27A G59A C85U U134A
C27G U44G U77G G83C A89U
C27U C75G C85A C105G U130G U146G
C27A G86U U144A
A26G U53A G88U G92U C118A A147G
A26U A39C A49G G128A A138G
C27G C87G G133C
C27G G71A A138C A142C
A26U A49U A137G
C27G A28C A41U A91G C93U
A26U A49C U111G
C27A C63A G80C C85G A119C U144A
C27G A49C G50U C54U C87G
A26G C32U U33G A49U A91U
A26U G46U A47U G74C C79G G92U G140A
C27A U45G G46A A60U C95G G124U
C27U C63U C87A G141U
C27A G74A C76G G86C G128A C129U U144C
A26G C36U G65C A91G U111G C149A
A26G G59A A89C C105U
C27U C57A C87A A115U
A26G G81A C95U
A26U A37C A47G C85U U90A U145A U146C
C27A C75U C93G A115U
C27U G86A U145A G152A
A26U C51U A52U C54G G86U C99A A107C C123G
C27A A49U C87A U134C G141A
C27U A41C A52C C54G C95G U102A
C27A U82G C87G G94A U135A
A26U C43A A49G G58C C93U G112A
C27A A52G G128U C129U C131G A147U
A26U G46U G48U G81U G83C C99G
A26G A52G U90G U135A G136C
A26G C36A
C27U C75G U78A C85U U148G
A26U G65A A66U U77C C96U A106U A107U C132U U139A G143C U148A
C27A G86A G94A U102G C132U G133U U134A
C27G C72U G83U A91U C93U
A26U A47C A49C G80C C85A A113G A150U

Polymerase ribozyme fitness (log ratio), -1.42:
C27U C76U
C27U G58A A60G G84U

Polymerase ribozyme fitness (log ratio), -3.56:
C27U G83A C95U U102A G126C

Polymerase ribozyme fitness (log ratio), -3.92:
C27U U33A G92C
